According to patent publication US7271143B1, “Peptides for regulation of urokinase (uPA) and tissue type (tPA) plasminogen activator and method of optimizing therapeutic efficacy” (Thrombotech Ltd., priority 2001, dated 2007):
Like-named read-outs stand apart in the source and are kept apart here. Ends that are not written are not given here.

How the values were obtained:
isolated rat aorta rings = assay: PE-induced contraction of isolated rat aorta rings; format: cell-based
Method: FIG. 1A is a diagram describing the results of experiments on the effect of tPA on PE-induced contraction of isolated rat aorta rings. Contraction of aortic rings was induced by increasing the concentrations of phenylephrine (PE), in the absence of tPA (full triangles) or in the presence of 1 nM (filled squares) or 20 nM tPA (empty squares).
FIG. 1B describes the results of experiments in which the contraction of aortic rings was induced in the absence of TNK-tPA (filled triangles), in the presence of 1 nM tPA (filled squares) or 20 nM tPA (empty squares).
FIG. 4 is a graph describing the effect of tPA on phenylepbrine-induced contraction of isolated rat aorta rings in vitro. The contraction of the aorta rings was induced by varying concentrations of phenylephrine in the absence of tPA (filled triangles), in the presence of 1 nM of TA (filled squares) or in the presence of 10 nM tPA (empty squares). The experiments were performed according to procedures described earlier by Haj-Yehia A et al., FASEB J, 2000, 14:1411–1422.
(§1) The effect of TNK-tPA on PE-induced contraction was compared with the effect of tPA, in the isolated aorta rings. The experimental procedure followed has been described earlier (Haj-Yehia A, Nassar T, Sachais B, Kuo A, Bdeir K., Al-Mehdi A-B, Mazar A, Cines D, Higazi A A-R. Urokinase-derived peptides regulate vascular smooth muscle contraction in vitro and in vivo. FASEB J 2000; 14:1411–1422.
FIG. 4 describes a graph describing the effect of TA on phenylephrine-induced contraction of isolated rat aorta rings in vitro. The contraction of the aorta rings was induced by varying concentrations of phenylephrine in the absence of tPA (filled triangles), in the presence of 1 nM of tPA (filled squares) or in the presence of 10 nM TA (empty squares). The experiments were performed according to procedures described earlier by Haj-Yehia A et al., FASEB J, 2000, 14:1411–1422.

tPA [1] = target: T1, tPA (Homo sapiens, UniProt P00750); assay: Effect on vasoactivity of tPA (PE-induced contraction of aorta rings); format: cell-based
T1 sequence (P00750 36-562): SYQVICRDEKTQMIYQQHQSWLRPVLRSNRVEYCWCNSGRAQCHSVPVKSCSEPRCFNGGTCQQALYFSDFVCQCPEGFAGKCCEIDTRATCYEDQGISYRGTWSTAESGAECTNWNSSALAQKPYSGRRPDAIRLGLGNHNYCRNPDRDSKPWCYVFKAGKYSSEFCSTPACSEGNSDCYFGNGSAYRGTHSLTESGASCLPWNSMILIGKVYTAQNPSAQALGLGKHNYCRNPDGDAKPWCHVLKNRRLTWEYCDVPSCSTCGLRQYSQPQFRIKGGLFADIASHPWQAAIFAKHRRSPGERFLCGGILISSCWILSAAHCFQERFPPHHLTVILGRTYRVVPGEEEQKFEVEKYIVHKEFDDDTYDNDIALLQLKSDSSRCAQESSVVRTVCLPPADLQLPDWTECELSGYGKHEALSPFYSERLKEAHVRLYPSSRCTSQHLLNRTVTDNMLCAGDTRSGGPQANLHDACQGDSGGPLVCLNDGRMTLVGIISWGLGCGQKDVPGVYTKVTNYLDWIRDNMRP
Method: (§2) FIG. 2 is a graphical representation of the results obtained in experiments to study the effect of PAI-1 on the vasoactivity of tPA. The EC50 of PE was determined in the absence (Control) or presence of 1 nM tPA, 20 nM tPA, 1 nM tPA and an equimolar concentration of PAI-1, 20 nM tPA and an equimolar concentration of PAI-1, 1 nM tPA and 2 μM of SEQ ID NO:1 or 20 nM tPA and 2 μM of SEQ ID NO:1.
as §2, with “FIG. 3 is a” for “FIG. 2 is a”, “effect of RAP and anti-LRP antibodies on the” for “effect of PAI-1 on the”
(§3) FIG. 6 is a bar diagram describing the results of studies done on the effect of PAI-1 derived peptide on tPA vasoactivity. The constriction of aorta rings was induced by increasing the concentrations of phenylepbrine in the absence or presence of 1 nM tPA, 1 nM tPA and 1 OM SEQ ID NO:1, 10 mM tPA or 10 nM tPA and 1 OM of SEQ ID NO:1.
as §1
In an attempt to understand the basis for the modification in the vasoactivity of TNK-tPA, the role of the PAI-1 docking site in the process was examined.
(§4) The effect of revertase and TNK-tPA on the PE induced vasocontraction was studied in presence or absence of the LRP antagonist (RAP) or anti LRP antibodies.
as §3, with “phenylephrine” for “phenylepbrine”, “OM,” for “OM SEQ ID NO:1,”, “nM” for “mM”, “OM.” for “OM of SEQ ID NO:1.”

uPA [2] = target: T2, uPA (Homo sapiens, UniProt P00749); assay: Effect on vasoactivity of uPA (PE-induced contraction of aorta rings); format: cell-based
Method: FIG. 5 is a bar diagram describing the results of experiments on the vasoactivity of uPA and tPA in the presence or absence of PAI-1, for example, the effect of 2 nM uPA or 1 nM tPA on phenylephrine induced vasoconstriction was determined in the presence or absence of equimolar concentrations of PAI-1.
FIG. 5 describes a bar diagram describing the results of experiments on the vasoactivity of uPA and tPA in the presence of absence of PAI-1, for example, the effect of 2 nM uPA or 1 nM tPA on phenylephrine induced vasoconstriction was determined in the presence or absence of equimolar concentrations of PAI-1.
as §3, with “phenylephrine” for “phenylepbrine”, “OM,” for “OM SEQ ID NO:1,”, “nM” for “mM”, “OM.” for “OM of SEQ ID NO:1.”

TNK-tPA = TNK-tPA (Homo sapiens, UniProt P00750, H332A/K331A/N152Q/R333A/R334A/T138N); assay: Effect on vasoactivity of TNK-tPA (PE-induced contraction of aorta rings); format: cell-based
TNK-tPA, sequence (P00750 36-562 T138N/N152Q/K331A/H332A/R333A/R334A): as the sequence (P00750 36-562) above, with T103N, N117Q, K296A, H297A, R298A, R299A counted along it
Method: as §2
The effect of TNK-tPA on PE-induced contraction was compared with the effect of tPA, in the isolated aorta rings.
PAI-1 interacts with tPA through independent sites; the catalytic site and a docking site, present in the amino acids […] to 299. The PAI-1 docking site is mutated in TNK-tPA. […] Madison E L, Goldsmith W. Gething M-J, H., Sambrook J F, Gerard R D. Restoration of serine protease-inhibitor interaction by protein engineering. Journal of Biological Chemistry. 1990; 265:21423–21426.
as §4

scuPA = scuPA (Homo sapiens, UniProt P00749); assay: Effect on fibrinolytic activity of scuPA (blood clot lysis); format: biochemical
tPA [3] = target: T1, tPA; assay: tPA mediated clot lysis / chromogenic assay of tPA activity; format: biochemical
Method: (§5) FIG. 7 is a bar diagram describing the results of experiments on the effect of PAI-1 derived peptide on tPA mediated clot lysis. The capacity of TA to induce clot lysis was determined in the presence and absence of 1 OM of SEQ ID NO:1. In these experiments, blood from volunteers was allowed to clot at room temperature for one hour, the blood clot was separated from the plasma, placed on absorbing paper to remove all the serum and cut into several pieces. The pieces were weighed, and placed in PBS buffer alone or containing 100 nM tPA, with or without 1 OM of SEQ ID NO:1. After incubation for 3 hours at room temperature, the thrombi are separated from the medium, dried and weighed.
as §5, with “of tPA” for “of TA”, “of 10 M.” for “of 1 OM of SEQ ID NO:1.”, “without 10M.” for “without 1 OM of SEQ ID NO:1.”, “weighed. […]” for “weighed.”

uPA [4] = target: T2, uPA; assay: Effect on fibrinolytic activity of uPA; format: biochemical
[5] = in vivo; cited from earlier work
[6] = in vivo; cited from earlier work; remark: listed apart in the source

Molecule: CNC[C@H](O)c1cccc(O)c1 [PE, phenylephrine, reference compound]
- EC50 (isolated rat aorta rings; Rattus norvegicus, control, before addition of plasminogen activator, read-out: EC50 of PE-induced constriction): 34 nM

Molecule: EEIIMD [SEQ ID NO:1, six amino acid peptide corresponding to residues 350 to 355 of PAI-1]
- effect on vasoactive effects of rtPA (tPA [1]; 2 μM peptide): abolished
- effect on enhancing effect of tPA on phenylephrine-induced vasoconstriction in aorta ring cultures (tPA [1]; concentration not given): abolishes
- effect on enhancing effect of tPA on phenylephrine induced vasoconstriction (tPA [1]; peptide at 10M (so in the source)): abolished
- effect on enhancing effect of uPA on phenylephrine-induced vasoconstriction (uPA [2]; concentration not given): abrogates
- effect on enhancing effect of uPA on phenylephrine induced vasoconstriction (uPA [2]; same as on tPA, peptide at 10M (so in the source)): the same effect
- effect on vasoactive effect of TNK-tPA (TNK-tPA; 2 μM peptide): unaffected
- effect on vasoactive effect of TNK-tPA (TNK-tPA; 10 μM peptide): abolished
- effect on vasoactive effect of TNK-tPA (TNK-tPA; 5 molar concentration of the peptide): abolished
- effect on vasoactive effect of TNK-tPA (TNK-tPA; equimolar concentration of peptide): unaffected
- effect on fibrinolytic activity of scuPA (scuPA): no effect
- effect on fibrinolytic activity of scuPA (scuPA; listed as 6 amino acid peptide): stimulates synergistically
- effect on fibrinolytic activity of tPA (tPA [3]): no effect
- effect on catalytic activity of tPA (clot lysis, FIG. 7) (tPA [3]; 100 nM tPA, peptide 10M (so in the source), 3 hours, room temperature): no significant effect
- effect on fibrinolytic activity of uPA (uPA [4]): no effect
- effect alone on contraction of aorta rings (isolated rat aorta rings; without tPA or uPA): Neither PAI-1 nor alone had any effect

Molecule: rRAP: LRP antagonist, recombinant receptor associated protein [reference compound]
- effect on vasoactive effect of tPA (tPA [1]): totally abolished
- effect on vasoactive effect of TNK-tPA (TNK-tPA; anti-LRP antibodies or LRP antagonist): totally abolished

Molecule: tPA: tissue-type plasminogen activator, single-chain serine protease; rtPA is the recombinant form
- non-cerebral bleeding episodes [5]: 5.94%
- incidence of subsequent symptomatic intracerebral hemorrhage [6]: approximately six
- patients with symptomatic intracerebral hemorrhage who die [6]: approximately fifty
- affinity of first (fast) epitope, inhibits PE induced vasoconstriction (isolated rat aorta rings): around 1 nM
- affinity of second epitope, stimulates PE-induced vasoconstriction (isolated rat aorta rings): around 20 nM
- effect on PE-induced vasoconstriction (isolated rat aorta rings; 1 nM): inhibited
- effect on PE-induced vasoconstriction (isolated rat aorta rings; 1 nM, listed as TA): inhibits
- effect on PE-induced vasoconstriction (isolated rat aorta rings; 20 nM): stimulated
- capacity to induce vasodilatation (isolated rat aorta rings; FIG. 4): has the capacity to induce vasodilatation
- effect on phenylephrine-induced vasoconstriction (isolated rat aorta rings; increased tPA concentrations (printed 1 nM; FIG. 4 uses 10 nM)): stimulated
